These results are taken from PMC7054286, “Functional Characterization of the Arabidopsis Abscisic Acid Transporters NPF4.5 and NPF4.6 in Xenopus Oocytes” (Frontiers in Plant Science, 2020).

Substrate in the series: CC1=CC(=O)CC(C)(C)[C@@]1(O)/C=C/C(C)=C\C(=O)O
Put plainly: cells, lysate or membranes. It is filed as cell-based, Arabidopsis thaliana. Conditions: pH 6.0, ND96, 0-5 μM ABA, labelled compound (10% 3H-ABA, 90% cold), apparent Km.

B1: NPF4.6 (Arabidopsis thaliana) (protein)
chain: MEVEEEVSRWEGYADWRNRAAVKGRHGGMLAASFVLVVEILENLAYLANASNLVLYLREYMHMSPSKSANDVTNFMGTAFLLALLGGFLSDAFFSTFQIFLISASIEFLGLIILTIQARTPSLMPPSCDSPTCEEVSGSKAAMLFVGLYLVALGVGGIKGSLASHGAEQFDESTPKGRKQRSTFFNYFVFCLACGALVAVTFVVWLEDNKGWEWGFGVSTIAIFVSILIFLSGSRFYRNKIPCGSPLTTILKVLLAASVKCCSSGSSSNAVASMSVSPSNHCVSKGKKEVESQGELEKPRQEEALPPRAQLTNSLKVLNGAADEKPVHRLLECTVQQVEDVKIVLKMLPIFACTIMLNCCLAQLSTFSVQQAASMNTKIGSLKIPPASLPIFPVVFIMILAPIYDHLIIPFARKATKTETGVTHLQRIGVGLVLSILAMAVAALVEIKRKGVAKDSGLLDSKETLPVTFLWIALQYLFLGSADLFTLAGLLEYFFTEAPSSMRSLATSLSWASLAMGYYLSSVIVSIVNSITGSSGNTPWLRGKSINRYKLDYFYWLMCVLSAANFLHYLFWAMRYKYRSTGSRS
notes: full CDS (pDONR207) in pGEM-GWC; cRNA-injected Xenopus oocytes; tag not given
With B1, the Km stood at 0.452 ± 0.025 µM.

B2: NPF4.5 (Arabidopsis thaliana) (protein)
chain: MEVEMHGDVSKWEGYADWRNKAALRGRHGGMLAASFVLAVEILENLAFLANASNLVLYLKNFMHMSLARSSSEVTTFMATAFLLALLGGFLADAFFSTFVIFLISASIEFLGLILLTIQARRPSLMPPPCKSSAALRCEVVGGSKAAFLFVGLYLVSLGIGGIKGSLPSHGAEQFDEGTPKGRKQRSTFFNYYVFCLSCGALVAVTFVVWIEDNKGWEWGFGVSTISIFLSILVFLLGSRFYKNKIPRGSPLTTIFKVLLAASIVSCSSKTSSNHFTSREVQSEHEEKTPSQSLTNSLTCLNKAIEGKTHHIWLECTVQQVEDVKIVLKMLPIFGCTIMLNCCLAQLSTYSVHQAATMNRKIVNFNVPSASLPVFPVVFMLILAPTYDHLIIPFARKVTKSEIGITHLQRIGVGLVLSIVAMAVAALVELKRKQVAREAGLLDSEETLPITFLWIALQYLFLGSADLFTLAGLLEFFFTEAPSSMRSLATSLSWASLALGYYLSSVMVPIVNRVTKSAGQSPWLGEKLNRNRLDLFYWLMCVLSVVNFLHYLFWAKRYKYISTGSIS
notes: full CDS (ABRC, pENTR223) in pGEM-GWC; cRNA-injected Xenopus oocytes; tag not given
For the protein B2, the Km turned out to be 0.522 ± 0.041 µM.
